In patent US8980255B2, “Treatment of autoimmune disease by modulating annexin-1 (lipocortin 1)” (Queen Mary & Westfield College, priority 2008, dated 2015):
Where no end group is shown, it is not given here.

B1: hrAnx-A1: Endotoxin-free human recombinant Anx-A1 (Annexin-1, 37-kDa protein) (protein, UniProt P04083 1-346, looked up)
chain: MAMVSEFLKQAWFIENEEQEYVQTVKSSKGGPGSAVSPYPTFNPSSDVAALHKAIMVKGVDEATIIDILTKRNNAQRQQIKAAYLQETGKPLDETLKKALTGHLEEVVLALLKTPAQFDADELRAAMKGLGTDEDTLIEILASRTNKEIRDINRVYREELKRDLAKDITSDTSGDFRNALLSLAKGDRSEDFGVNEDLADSDARALYEAGERRKGTDVNVFNTILTTRSYPQLRRVFQKYTKYSKHDMNKVLDLELKGDIEKCLTAIVKCATSKPAFFAEKLHQAMKGVGTRHKALIRIMVSRSEIDMNDIKAFYQKMYGISLCQAILDETKGDYEKILVALCGGN
modifications: full-length

Experiments:
[1] = test system: murine naïve lymph node T cells; experiment: T cell proliferation (3H-thymidine incorporation), anti-CD3/CD28 stimulation; type: cell-based
Protocol: Primary murine T cells were prepared from lymph nodes by negative selection. Briefly, axillary, inguinal, and mesenteric lymph nodes were teased apart to make a single cell suspension, then washed and layered over Ficoll. The buffy coat was washed 2 times and then incubated with the antibody mix and the magnetic beads following the manufacturer's instructions (mouse T-cell negative isolation kit; Dynal, Bromborough, United Kingdom). In some experiments, cells were further purified to obtain naive CD62L^+ CD4^+ T cells by using the Miltenyi Biotec CD62L^+ CD4^+ T-cell isolation kit. Th0 conditions were created by T cells for 4 days in 6-well plates precoated with anti-CD3 (5 μg/mL) and anti-CD28 (5 μg/mL) in complete RPMI medium (10% fetal calf serum [FCS], 2 mM L-glutamine, and 100 units mL^−1 gentamycin) containing murine IL-2 (20 U/mL). […]
Purified lymph node T cells (10^5 cells/mL) were incubated with medium alone or with different concentrations of hrAnx-A1 for 2 hours at 37° C. in Eppendorf tubes. […] After 18 hours, cultures were pulsed for 8 hours with 1 μCi (3.7×10^4 Bg) [^3H]-thymidine (Amersham Pharmacia Biotech, Piscataway, N.J.) and incorporated radioactivity was measured by automated scintillation counter (Packard Instruments, Pangbourne, United Kingdom). […]

[2] = test system: murine naïve lymph node T cells; experiment: IL-2 production from anti-CD3/CD28 stimulated T cells; type: cell-based
Protocol: The effects of an N-terminal peptide of hrAnx-A1 (peptide Ac 2-26) and of full length hrAnx-A1 on T cell activation were investigated. IL-2 production from murine naïve lymph node T cells was stimulated with 0.6, 1.25 or 2.5 μg/ml of anti-CD3/CD28 in the presence or absence of full length hrAnx-A1 (300 nM) or the Anx-A1 derived N-terminal peptide Ac.2-26 (100 μM) for 24 hrs.

[3] = test system: DBA mice; experiment: collagen-induced arthritis (CIA) model; type: in vivo; details: 1 μg s.c. twice a day for 12 days after immunization with collagen, compared to PBS vehicle; FIGS. 8A, 8B
Protocol: Mice were injected with hrAnx-A1 daily for 12 days after immunization with collagen (time during which naïve cells differentiate in Th effector cells) and thereafter the progression of the disease upon antigen challenge was analyzed. […] Synchronization of disease onset was obtained by boosting with collagen on day 21, and clinical signs were evident from day 22 (day 1 of the onset of the diseases). Values are mean±S.E. of n=6-8 mice. Groups were compared using the Maim-Whitney test. *P<0.01

[4] = test system: Nuclear Factor of Activated T cells (NFAT); experiment: Electrophoretic Mobility Shift Assay for NFAT activation in T cells; type: cell-based; details: T cells stimulated with anti-CD3/CD28 1.25 μg/ml in presence of hrAnx-A1; FIG. 5A
Protocol: (§1) Nuclear extracts were harvested from 3×10^6 to 5×10^6 cells according to previously described protocols. Nuclear extracts (3 μg to 5 μg) were incubated with 1 μg (for NFAT) or 2 μg (for NF-κB and AP-1) of poly (dI:dC) in 20 μL binding buffer with ^32P end-labeled, double-stranded oligonucleotide probes (5×10^5 cpm), and fractionated on a 6% polyacrylamide gel (29:1 cross-linking ratio) in 0.5% TBE for 2.5 hours at 150 V. The NF-κB and AP-1 binding buffer (10×) contained 100 mM Tris-HCl, (pH 7.5), 500 mM NaCl, 10 mM EDTA, 50% glycerol, 10 mg/mL albumin, 30 mM GTP, 10 mM DTT. The NFAT binding buffer (10×) contained 100 mM Hepes (pH 7.9), 500 mM KCl, 1 mM EDTA, 1 mM EGTA, 50% glycerol, 5 mg/mL albumin, 1% Nonidet P-40, 10 mM DTT. The NF-κB and AP-1 double-stranded oligonucleotide probes were from Promega and the NFAT was from Santa Cruz Biotechnology (Santa Cruz, Calif.).
(§2) Investigations were carried out into how exogenous and endogenous Anx-A1 modulates T cell activation. The three major transcriptional activators of T cells, namely Activator Protein-1 (AP-1), Nuclear Factor-κB (NF-κB) and Nuclear Factor of Activated T cells (NFAT) were analysed in cells stimulated in presence of hrAnx-A1. […]

[5] = test system: naïve lymph node T cells; experiment: Th1/Th2 differentiation in vitro, cytokine production on anti-CD3 restimulation; type: cell-based, mice; details: Th1 or Th2 conditions, hrAnx-A1 600 nM, anti-CD3 5.0 μg/ml re-stimulation 8 h; FIG. 7A
Protocol: Primary murine T cells were prepared from lymph nodes by negative selection. Briefly, axillary, inguinal, and mesenteric lymph nodes were teased apart to make a single cell suspension, then washed and layered over Ficoll. The buffy coat was washed 2 times and then incubated with the antibody mix and the magnetic beads following the manufacturer's instructions (mouse T-cell negative isolation kit; Dynal, Bromborough, United Kingdom). In some experiments, cells were further purified to obtain naive CD62L^+ CD4^+ T cells by using the Miltenyi Biotec CD62L^+ CD4^+ T-cell isolation kit. Th0 conditions were created by T cells for 4 days in 6-well plates precoated with anti-CD3 (5 μg/mL) and anti-CD28 (5 μg/mL) in complete RPMI medium (10% fetal calf serum [FCS], 2 mM L-glutamine, and 100 units mL^−1 gentamycin) containing murine IL-2 (20 U/mL). Th1 conditions were created with murine IL-12 (3.4 ng/mL; eBioscience), IL-2 (20 U/mL; eBioscience), and anti-IL4 (clone 11B11; 2 μg/mL). Th2 conditions were created with IL-4 (3000 U/mL; Peprotech, Rocky Hill, N.J.), IL-2 (20 U/mL), and anti-IFN-γ (clone XMG1.2; 2 μg/mL). Jurkat cells were obtained from ATCC (Manassas, Va.) and were cultured in complete RPMI medium.
For Th1/Th2 cytokine production analysis, Th0/Th1/Th2 cells (10^6/mL) obtained after 4-day differentiation in skewing conditions and 1 day of resting in complete RPMI medium, were stimulated with plate-bound anti-CD3 (5 μg/mL) for 8 h in 24-well plates. Culture supernatants were collected and analyzed for IFN-γ, IL-2, IL-4 and IL-10 content by using Th1/Th2 panel ELISA kit (eBioscience). The IL-13 ELISA kit was also purchased from eBioscience.
Naïve lymph node T cells were differentiated in vitro in Th1 (black bars) or Th2 (white bars) conditions in presence or absence of hrAnx-A1 (600 nM) and then restimulated with plate-bound anti-CD3 (5.0 μg/ml) for 8 h to measure Th1 or Th2 cytokine production. Values are mean±S.E. of n=4-5 mice. **P<0.01

[6] = test system: Nuclear Factor-κB (NF-κB); experiment: Electrophoretic Mobility Shift Assay for NF-κB activation in T cells; type: cell-based; details: T cells stimulated with anti-CD3/CD28 1.25 μg/ml in presence of hrAnx-A1; FIG. 5A
Protocol: as §1, §2

[7] = test system: murine naïve lymph node T cells; experiment: CD25 and CD69 cell surface expression by FACS; type: cell-based; details: hrAnx-A1 150, 300, 600 nM; anti-CD3/CD28 1.25-5.0 μg/ml, 12 hrs; FIGS. 3C, 3D
Protocol: Purified lymph node T cells were pretreated with human recombinant Anx-A1 for 2 hours at 37° C. in Eppendorf tubes and then stimulated with plate-bound anti-CD3 and anti-CD28 as indicated in the figures. After 16 hours, the cells were stained with PE-conjugated anti-CD69 (clone H1.2F3) and FITC-conjugated anti-CD25 (clone PC61.5) diluted in FACS buffer (PBS containing 1% FCS and 0.02% […]). Intact cells were gated by using forward and side scatter and were analyzed with the CellQuest program (Becton Dickinson, Franklin Lakes, N.J.) on a FACScan flow cytometer. […]
Murine naïve lymph node T cells were stimulated with anti-CD3/CD28 at a concentration of 1.25 μg/ml (left column), 2.5 μg/ml (middle column) and 5.0 μg/ml (right column), in the absence of (upper panels) or in the presence of (lower panels) hrAnx-A1 (600 nM) for 12 hrs and then analyzed for CD25 and CD69 expression by FACS.
In FIG. 3D, murine naïve lymph node T cells were stimulated with the indicated concentration of anti-CD3/CD28 in the presence of 150 (X), 300 ( ? ) and 600 (◯) nM of hrAnx-A1 for 12 hours and then analysed for CD25 (left graph) and CD69 (right graph) expression by FACS.

[8] = test system: Activator Protein-1 (AP-1); experiment: Electrophoretic Mobility Shift Assay for AP-1 activation in T cells; type: cell-based; details: T cells stimulated with anti-CD3/CD28 1.25 μg/ml in presence of hrAnx-A1; FIG. 5A
Protocol: as §1, §2

| Molecule | T cell proliferation ([1]; Ac.2-26, data not shown) | IL-2 production ([2]; Ac.2-26 100 μM, anti-CD3/CD28 0.6, 1.25 or 2.5 μg/ml, 24 hrs, FIG. 9) | signs and symptoms of arthritis (paw volume, clinical score) [3] | cell proliferation ([1]; pre-treatment with hrAnx-A1, anti-CD3/CD28 5.0, 2.5 and 1.25 μg/ml, 24 hrs, FIG. 3A) | activation of NFAT [4] | IFNγ production [5] | IL2 production [5] | IL4 release [5] | IL 10 release [5] | activation of NF-κB [6] | cell surface expression of CD25 [7] | cell surface expression of CD69 [7] | IL-2 production ([2]; anti-CD3/CD28 1.25 μg/ml, different concentrations of hrAnx-A1, 24 hrs, FIG. 3B) | activation of AP-1 [8] |
| --- | --- | --- | --- | --- | --- | --- | --- | --- | --- | --- | --- | --- | --- | --- |
| CH3CO-AMVSEFLKQA WFIENEEQEYVQTVK (Ac-AMVSEFLKQAWFIENEEQEYVQTVK; listed as Homo sapiens) [Ac.2-26, reference compound] | increased | increased | – | – | – | – | – | – | – | – | – | – | – | – |
| B1 | – | – | exacerbated | augmented | increased activation | increased | increased | decrease | decrease | increased activation | augmented | augmented | augmented | increased activation |
